Tests used:
[1] = target: T1, TIF2.4 (Homo sapiens, UniProt Q15596); experiment: Cell-free pulldown of [35S]-labeled STAMP constructs by GST/TIF2.4; assay type: binding; conditions: compared with GST itself
T1 sequence (Q15596 624-1010 limits assumed): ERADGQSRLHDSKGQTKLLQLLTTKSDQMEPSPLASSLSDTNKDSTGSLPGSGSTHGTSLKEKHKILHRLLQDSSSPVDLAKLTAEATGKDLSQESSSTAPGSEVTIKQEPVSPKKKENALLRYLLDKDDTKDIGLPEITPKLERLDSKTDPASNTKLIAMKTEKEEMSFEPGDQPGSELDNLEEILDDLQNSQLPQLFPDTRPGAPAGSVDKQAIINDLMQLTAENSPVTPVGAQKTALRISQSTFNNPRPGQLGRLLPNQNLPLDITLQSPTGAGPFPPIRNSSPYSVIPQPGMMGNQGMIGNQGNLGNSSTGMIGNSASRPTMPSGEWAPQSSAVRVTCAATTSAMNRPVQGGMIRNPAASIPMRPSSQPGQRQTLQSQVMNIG
Source text: FIGS. 7A and 7B illustrate the domains of STAMP that bind to TIF2.4 (FIG. 7A) and GR (FIG. 7B) in cell-free pulldown assays. Bacterially expressed GST-chimeras (GST/TIF2.4 in FIG. 7A and GST/STAMP segments in FIG. 7B) were immobilized on glutathione-Sepharose beads. The [^35S]methionine labeled STAMP fragments (FIG. 7A) or wild type GR (FIG. 7B) that were retained on the matrix by binding to the GST chimeras were separated on SDS PAGE gels and visualized by autoradiography. Specific binding was seen as when the GST/TIF2.4 or GST/STAMP bands were darker than the GST control bands. […] Similar results were obtained in a second experiment.
Template DNA plasmids (1 μg), 40 μl of Promega TNT (SP6) quick coupled transcription/translation system master mixture, and 2 μl of [^35S]methionine (Amersham Biosciences) were brought up to a total volume of 50 μl with H2O and incubated at 30° C. for 90 min according to the manufacturer's (Promega) recommendations. If hormone stimulation is needed, hormones (Dex, etc) were added into the transcription-translation reaction during the 30° C. incubation to both increase the stability of the synthesized GR and to cause activation of the GR-steroid complexes.
These assays were conducted generally as described (He et al., 2002). Sonicated bacterial lysates (1 ml) containing overexpressed GST, GST/TIF2.4, or GST/STAMP-956C were incubated with 160 μl of glutathione-Sepharose 4B beads for 1 hr at 0° C. The mixture was centrifuged (12,000×g), the supernatant was discarded, and the pellet was washed with phosphate-buffered saline (3×1 ml). Each 20-μl sample of immobilized GST or GST-chimera was then incubated overnight with 10 μl of ^35S-labeled in vitro translation product. The matrix was washed with phosphate-buffered saline (4×1 ml). The immobilized proteins were removed from the beads by heating at 90° C. for 5 min in 20 μl of 2×SDS loading buffer. The proteins were separated on 8-10% SDS-PAGE gels and detected by radio-autoradiography.

[2] = target: T1, TIF2.4; experiment: Mammalian two-hybrid assay in CV-1 cells (pFRLuc reporter) with TIF2.4; assay type: cell-based; parameters: expressed in transfected cells; host or cells: CV-1
Source text: FIG. 2A-2C illustrate the isolation and characterization of the partial clone of the protein that binds to TIF2.4. […] Five clones were obtained but only two (clones I and V) contained a protein that was needed for colony growth in the presence of the pSos/TIF2.4 fusion protein. After initial screening, only clone I (also named 6-6CL1) was selected for further investigation. FIG. 2B and FIG. 2C illustrate the selectivity of 6-6CL1 interactions with TIF2.4 in mammalian two-hybrid assays. Triplicate samples of CV-1 cells in 24-well plates were transiently transfected with the indicated GAL-DBD and VP16-AD plasmids along with the GAL4-regulated reporter, pFRLuc. The relative luciferase activity, normalized for the activity of the internal Renilla control, was determined and plotted as the average±S.D. The much lower activity of GAL/TIF2.4m123 was previously shown not to be due to unequal levels of protein expression (He et al., 2002). Similar results were obtained in three additional experiments. FIG. 2D and FIG. 2E provide a comparison of binding to 6-6CL1 by similarly positioned domains of SRC-1 and TIF2. Triplicate samples of CV-1 cells in 24-well plates were analyzed as in (B&C) after being transiently transfected with GAL±6-6CL1 constructs and pFRLuc reporter along with VP16 chimeras of SRC-1 (FIG. 2D) or TIF2 (FIG. 2E) segments. Similar results for SRC-1 were obtained in two additional experiments (ND=not determined). Western blots (FIG. 2F) indicate that the low activity of TIF2(1140C) (see FIG. 1) is not due to inadequate protein expression.
FIGS. 6A and 6B illustrate the domains of STAMP that interact with TIF2.4 (FIG. 6A) and GR (FIG. 6B) in the mammalian two-hybrid assay. […] These CV-1 cells were also transfected with GAL fused to the indicated segments of STAMP along with the FRLuc reporter and Renilla control plasmids. After determining the relative luciferase activities as described in FIG. 2B and 2C, the average values±S.E.M. from 2-5 experiments were plotted. The average fold increase for VP16/TIF2.4 with GAL/STAMP(623-834) in FIG. 6A was 11.0±3.0 (SEM, n=5) above the VP16 control. The values in parentheses above the data bars in FIG. 6B indicate the fold increased interaction ±1 μM Dex.
These assays were conducted as described (He et al., 2002). In particular, the recommended procedure for the Mammalian Matchmaker two-hybrid assay kit (Clontech) was modified slightly by changing from a chloramphenicol acetyltransferase reporter to a Luciferase Reporter pFRLuc (Stratagene), which is under the control of five repeats of the upstream activating sequence for the binding of GAL4.

Row | Molecule | binding to GST/TIF2.4 [1] | interaction with TIF2.4 [2] | average fold increase for VP16/TIF2.4 above the VP16 control ([2]; SEM, n=5) [fold]
1 | 6-6CL1: STAMP fragment amino acids 623-834, coactivator interaction domain (CID) (protein) ENTPKENSMKVREWNNKGGHCCKLETQELEPKFNLMQILQDNGNLSKMQARIAFSAYLQHVQIRLMKDSGGQTFSASWAAKEDEQMELVVRFLKRASNNLQHSLRMVLPSRRLALLERRRILAHQLGDFIIVYNKETEQMAEKKSKKKVEEEEEDGVNMENFQEFIRQASEAELEEVLTFYTQKNKSASVFLGTHSKISKNNNNYSDSGAKG | strong binding | did interact | 11.0±3.0
2 | STAMP834C: STAMP fragment amino acids 834-1277, receptor interaction domain (RID) (protein) GDHPETIMEEVKIKPPKQQQTTEIHSDKLSRFTTSAEKEAKLVYSNSSSGPTATLQKIPNTHLSSVTTSDLSPGPCHHSSLSQIPSAIPSMPHQPTILLNTVSASASPCLHPGAQNIPSPTGLPRCRSGSHTIGPFSSFQSAAHIYSQKLSRPSSAKAGSCYLNKHHSGIAKTQKEGEDASLYSKRYNQSMVTAELQRLAEKQAARQYSPSSHINLLTQQVTNLNLATGIINRSSASAPPTLRPIISPSGPTWSTQSDPQAPENHSSSPGSRSLQTGGFAWEGEVENNVYSQATGVVPQHKYHPTAGSYQLQFALQQLEQQKLQSRQLLDQSRARHQAIFGSQTLPNSNLWTMNNGAGCRISSATASGQKPTTLPQKVVPPPSSCASLVPKPPPNHEQVLRRATSQKASKGSSAEGQLNGLQSSLNPAASVPITSSTDPAHTKI | neither the amino terminal (N623) nor the C-terminal (834C) fragments exhibit significantly more binding to GST/TIF2.4 than to GST itself | weak response | –
3 | STAMP: SRC-1 and TIF2 Associated Modulatory Protein, 1277 amino acid human polypeptide, expressed from transfected plasmid (protein) MARDLEETASSSEDEEVISQEDHPCIMWTGGCRRIPVLVFHADAILTKDNNIRVIGERYHLSYKIVRTDSRLVRSILTAHGFHEVHPSSTDYNLMWTGSHLKPFLLRTLSEAQKVNHFPRSYELTRKDRLYKNIIRMQHTHGFKVFHILPQTFLLPAEYAEFCNSYSKDRGPWIVKPVASSRGRGVYLINNPNQISLEENILVSRYINNPLLIDDFKFDVRLYVLVTSYDPLVIYLYEEGLARFATVRYDQGAKNIRNQFMHLTNYSVNKKSGDYVSCDDPEVEDYGNKWSMSAMLRYLKQEGRDTTALMAHVEDLIIKTIISAELAIATACKTFVPHRSSCFELYGFDVLIDSTLKPWLLEVNLSPSLACDAPLDLKIKASMISDMFTVVGFVCQDPAQRASTRPIYPTFESSRRNPFQKPQRCRPLSASDAEMKNLVGSAREKGPGKLGGSVLGLSMEEIKVLRRVKEENDRRGGFIRIFPTSETWEIYGSYLEHKTSMNYMLATRLFQDRMTADGAPELKIESLNSKAKLHAALYERKLLSLEVRKRRRRSSRLRAMRPKYPVITQPAEMNVKTETESEEEEEVALDNEDEEQEASQEESAGFLRENQAKYTPSLTALVENTPKENSMKVREWNNKGGHCCKLETQELEPKFNLMQILQDNGNLSKMQARIAFSAYLQHVQIRLMKDSGGQTFSASWAAKEDEQMELVVRFLKRASNNLQHSLRMVLPSRRLALLERRRILAHQLGDFIIVYNKETEQMAEKKSKKKVEEEEEDGVNMENFQEFIRQASEAELEEVLTFYTQKNKSASVFLGTHSKISKNNNNYSDSGAKGDHPETIMEEVKIKPPKQQQTTEIHSDKLSRFTTSAEKEAKLVYSNSSSGPTATLQKIPNTHLSSVTTSDLSPGPCHHSSLSQIPSAIPSMPHQPTILLNTVSASASPCLHPGAQNIPSPTGLPRCRSGSHTIGPFSSFQSAAHIYSQKLSRPSSAKAGSCYLNKHHSGIAKTQKEGEDASLYSKRYNQSMVTAELQRLAEKQAARQYSPSSHINLLTQQVTNLNLATGIINRSSASAPPTLRPIISPSGPTWSTQSDPQAPENHSSSPGSRSLQTGGFAWEGEVENNVYSQATGVVPQHKYHPTAGSYQLQFALQQLEQQKLQSRQLLDQSRARHQAIFGSQTLPNSNLWTMNNGAGCRISSATASGQKPTTLPQKVVPPPSSCASLVPKPPPNHEQVLRRATSQKASKGSSAEGQLNGLQSSLNPAASVPITSSTDPAHTKI | weak interaction | – | –

From US7867500B2, “Cofactor that modulates steroid receptor activities” (The United States of America as represented by the …, priority 2004, dated 2011)
